From patent publication US20180147257A1 (Stanford University, published 2018)

Target: T1, PDL1 displayed on yeast cells (UniProt Q9NZQ7 19-238, limits assumed)
T1 construct: Control for the yeast display staining; also called closest CD277 structural homologue
Experiment: FACS staining of yeast displaying PDL1 with purified LTβR-IgG1 fusion protein

T1 sequence (Q9NZQ7 19-238 limits assumed): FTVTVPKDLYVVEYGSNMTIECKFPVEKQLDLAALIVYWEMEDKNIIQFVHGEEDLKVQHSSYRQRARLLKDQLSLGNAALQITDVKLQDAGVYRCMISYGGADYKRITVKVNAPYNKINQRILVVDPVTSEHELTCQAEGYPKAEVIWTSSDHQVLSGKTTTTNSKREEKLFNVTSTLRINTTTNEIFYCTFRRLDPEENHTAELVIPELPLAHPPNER

binding result: no binding
B1: LTβR-IgG1 fusion protein (Fc fusion, UniProt P36941 31-227, looked up)
chain: QAVPPYASENQTCRDQEKEYYEPQHRICCSRCPPGTYVSAKCSRIRDTVCATCAENSYNEHWNYLTICQLCRPCDPVMGLEEIAPCTSKRKTQCRCQPGMFCAAWALECTHCELLSDCPPGTEAELKDEVGKGNNHCVPCKAGHFQNTSSPSARCQPHTRCENQGLVEAAPGTAQSDTTCKNPLEPLPPEMSGTMLM
notes: Purified fusion protein; also called LTBR-IgG1 fusion protein; not shown: IgG1 part of the fusion
